We go through 3 proteins from PMC5006159, “Structural basis for early-onset neurological disorders caused by mutations in human selenocysteine synthase” (Scientific Reports, 2016).

Numbering of substitutions follows the chain as printed. Names may count otherwise.

Data set [1] concerns the molecule itself. Description: SEC; S200 SEC of the soluble, purified His-tagged SepSecS samples; tetramer peak at ~70 min, 'early' peak at ~55 min; self-association. For orientation: Size exclusion chromatography separates by hydrodynamic size, large species first.
Data set [2] concerns the molecule itself. Description: crystal structure; holo T325S, sitting drop at +12 °C, lithium citrate and PEG 3,350; orthorhombic, half of the tetramer in the asymmetric unit.
Data set [3] concerns the molecule itself. In words: crystal structure; binary complexes with human tRNASec, sitting drop at +12 °C, sodium cacodylate, lithium citrate, PEG 3,350; trigonal, two SepSecS dimers and one tRNASec in the asymmetric unit.

B1: human O-phosphoseryl-tRNASec:selenocysteinyl-tRNASec synthase (SepSecS), wild type (enzyme)
chain: MNRESFAAGERLVSPAYVRQGCEARRSHEHLIRLLLEKGKCPENGWDESTLELFLHELAIMDSNNFLGNCGVGEREGRVASALVARRHYRFIHGIGRSGDISAVQPKAAGSSLLNKITNSLVLDIIKLAGVHTVANCFVVPMATGMSLTLCFLTLRHKRPKAKYIIWPRIDQKSCFKSMITAGFEPVVIENVLEGDELRTDLKAVEAKVQELGPDCILCIHSTTSCFAPRVPDRLEELAVICANYDIPHIVNNAYGVQSSKCMHLIQQGARVGRIDAFVQSLDKNFMVPVGGAIIAGFNDSFIQEISKMYPGRASASPSLDVLITLLSLGSNGYKKLLKERKEMFSYLSNQIKKLSEAYNERLLHTPHNPISLAMTLKTLDEHRDKAVTQLGSMLFTRQVSGARVVPLGSMQTVSGYTFRGFMSHTNNYPCAYLNAASAIGMKMQDVDLFIKRLDRCLKAVRKERSKESDDNYDKTEDVDIEEMALKLDNVLLDTYQDASS
notes: human SepSecS (SEPSECS) cloned into pQE80 with an N-terminal His-tag; PLP cofactor covalently attached to Lys284; Band at ~60 kDa on SDS-PAGE; also called WT SepSecS; WT; not shown: His6, N-terminal, kept
In the case of B1, the stoichiometry N – broadly, the number of molecules, sites or subunits per partner or assembly – in data set [1] was found to be 4.

B2: human SepSecS Thr325Ser variant (enzyme)
chain: B1 chain with T325S
notes: human SepSecS (SEPSECS) in pQE80 with an N-terminal His-tag, pathogenic variant made by site-directed mutagenesis; Mutation found in patients (PCH2D); also called T325S; T325S70; source: E. coli SoluBL21(DE3), purified from the soluble fraction, S200 SEC (70 min and 55 min peaks); not shown: His6, N-terminal, kept
Regarding B2, in data set [2], the “stoichiometry N” value was 4.

B3: human SepSecS Tyr334Cys variant (enzyme)
chain: B1 chain with Y334C
notes: human SepSecS (SEPSECS) in pQE80 with an N-terminal His-tag, pathogenic variant made by site-directed mutagenesis; Mutation found in patients (PCH2D); also called Y334C; Y334C70; not shown: His6, N-terminal, kept
With B3, the “stoichiometry N” value in data set [3] stood at 4.
